The source of these data is patent US6767887.

The target in the experiment is human neutral endopeptidase 24.11 (human) (UniProt P08473). Kind of experiment: cell-based or functional assay.

Turning to “GLP-1-(7-36)-NH2 (from UniProt P01275 98-127) (peptide)”, the Degradation rate (mM/100 ng/ml NEP24.11/min) came out at 0.0586.
